From publication doi:10.1101/2025.11.04.686606

Biological target: PcoAA14A_dCTR, disordered C-terminal region alone of PcoAA14A (Pycnoporus coccineus)
Assay: SEC-MALLS

Substance: PcoAA14A_dCTR, disordered C-terminal region alone of PcoAA14A (domain or fragment)
- stoichiometry N: 2
